This is an account of results in publication PMC5448004.

The target of the assay is HepA (helicase protein A), archaeal HerA homolog of Thermus thermophilus, product of gene TTC0147 (Thermus thermophilus HB27). Nature of the assay: negative-stain single-particle electron microscopy; purified HepA at 0.3 mg/mL in 20 mM Tris-HCl pH 7.5, pre-incubated with 1-10 mM ATP (30 min, 65 °C), 2% uranyl acetate; 2D classification and 3D reconstruction with C6 symmetry.

“HepA (helicase protein A), archaeal HerA homolog of Thermus thermophilus, product of gene TTC0147 (enzyme)” had a stoichiometry N of 6.
